Measurements reported in the Human Domainome abundance scans (Beltran et al. 2025).
± gives the uncertainty stated by the source.

B1: CD2-associated protein, residues 271 to 331; numbered along this chain, Q9Y5K6 (parent)
chain: KEYCRTLFAYEGTNEDELTFKEGEIIHLISKETGEAGWWRGELNGKEGVFPDNFAVQINEL

Variants of: B1
Test: abundance fitness (aPCA) (normalised: wild type 0, dead -1); higher = more abundant; growth selection in yeast, the domain comes from the species named
Details: Homo sapiens

Abundance fitness: each site, then its substitutions
G23: N -0.106 ± 0.12, P -0.892 ± 0.2, C -0.45 ± 0.093, Y -1.09 ± 0.33, K -0.646 ± 0.15, R -0.57 ± 0.063, F -0.863 ± 0.39, S -0.465 ± 0.082, T -0.424 ± 0.14, Q -0.726 ± 0.15, L -0.941 ± 0.12, M -0.958 ± 0.23, V -1.13 ± 0.2, E -0.564 ± 0.17, I -0.613 ± 0.16, A -0.727 ± 0.13, H -0.644 ± 0.16, W -0.532 ± 0.088
T19: F -0.592 ± 0.073, K -0.436 ± 0.17, R -0.283 ± 0.07, Y -0.422 ± 0.078, H -0.252 ± 0.082, I -0.693 ± 0.093, M -0.598 ± 0.16, V -0.66 ± 0.074, D -0.499 ± 0.1, G -0.431 ± 0.13, N -0.153 ± 0.058, E -0.696 ± 0.21, A -0.249 ± 0.08, C -0.287 ± 0.064, Q -0.536 ± 0.21, W -0.555 ± 0.19, L -0.814 ± 0.11
F20: E -0.91 ± 0.13, Q -0.629 ± 0.11, H -0.603 ± 0.18, A -0.808 ± 0.089, S -0.564 ± 0.083, N -0.551 ± 0.12, K -0.665 ± 0.097, T -0.854 ± 0.15, P -0.893 ± 0.15, L -0.709 ± 0.078, M -0.714 ± 0.11, D -0.523 ± 0.14, C -0.793 ± 0.13, Y -0.713 ± 0.14, I -0.492 ± 0.13, W -0.887 ± 0.12
E17: R -0.483 ± 0.048, H -0.107 ± 0.1, D -0.213 ± 0.13, P -1.12 ± 0.22, W -0.855 ± 0.083, M -0.362 ± 0.097, N -0.755 ± 0.2, K -0.619 ± 0.093, T -0.428 ± 0.067, F -0.53 ± 0.12, V -0.497 ± 0.08, S -0.259 ± 0.052, Y -0.463 ± 0.075, I -0.991 ± 0.19, G -0.58 ± 0.078, C -0.182 ± 0.076, L -0.744 ± 0.065, Q 0.049 ± 0.071, A -0.233 ± 0.083
K31: P -0.703 ± 0.17, C -0.562 ± 0.095, G -0.522 ± 0.11, A -0.635 ± 0.11, Q -0.52 ± 0.14, M -0.013 ± 0.25, N -0.575 ± 0.069, D -0.717 ± 0.14, E -0.111 ± 0.49, R 0.017 ± 0.089, F -0.848 ± 0.086, I -0.672 ± 0.091, V -0.313 ± 0.073, L -0.476 ± 0.064, S -0.571 ± 0.068, T -0.024 ± 0.062
K21: F -0.42 ± 0.099, S -0.045 ± 0.063, V -0.127 ± 0.048, C -0.16 ± 0.14, A -0.023 ± 0.057, G -0.027 ± 0.058, E -0.015 ± 0.073, I -0.265 ± 0.081, Q -0.139 ± 0.075, P -0.242 ± 0.09, W -0.538 ± 0.12, N -0.019 ± 0.14, Y -0.37 ± 0.16, T -0.076 ± 0.072, H -0.107 ± 0.3, L -0.203 ± 0.057, R -0.064 ± 0.064, M -0.202 ± 0.06
D16: Q -0.105 ± 0.072, C -0.128 ± 0.078, R -0.062 ± 0.044, A -0.061 ± 0.055, E -0.018 ± 0.054, G 0.051 ± 0.048, Y -0.072 ± 0.092, P -0.738 ± 0.086, F -0.002 ± 0.073, H -0.008 ± 0.098, K 0.026 ± 0.087, N 0.014 ± 0.086, S -0.003 ± 0.048, L -0.091 ± 0.04, I -0.699 ± 0.19, M -0.194 ± 0.057
L28: S -0.712 ± 0.067, W -0.871 ± 0.11, P -0.614 ± 0.17, I -0.068 ± 0.11, A -0.812 ± 0.2, R -0.706 ± 0.064, D -0.82 ± 0.26, Q -0.913 ± 0.17, E -0.738 ± 0.16, Y -0.702 ± 0.16, K -0.503 ± 0.084, T -0.441 ± 0.086, C -0.676 ± 0.078, H -0.623 ± 0.13, M -0.482 ± 0.073, V -0.005 ± 0.077, G -0.778 ± 0.077, N -0.59 ± 0.11
I25: S -0.448 ± 0.071, E -0.471 ± 0.084, K -0.35 ± 0.1, T -0.175 ± 0.072, G -0.602 ± 0.07, M -0.064 ± 0.063, C -0.485 ± 0.1, P -0.794 ± 0.19, W -0.75 ± 0.14, R -0.372 ± 0.053, N -0.451 ± 0.097, F -0.302 ± 0.076, D -0.285 ± 0.11, H -0.448 ± 0.16, Q -0.234 ± 0.087, V -0.083 ± 0.053
T13: R 0.042 ± 0.053, K 0.108 ± 0.066, G -0.018 ± 0.064, H -0.197 ± 0.12, L -0.082 ± 0.05, A 0.066 ± 0.063, I -0.183 ± 0.15, S -0.051 ± 0.053, Y -0.257 ± 0.1, C 0.038 ± 0.11, E -0.042 ± 0.062, W -0.475 ± 0.093, F -0.416 ± 0.1, D -0.185 ± 0.085, N -0.078 ± 0.093, V -0.083 ± 0.048, Q 0.122 ± 0.083, P -0.594 ± 0.089
L18: K -0.744 ± 0.2, W -0.792 ± 0.14, R -0.816 ± 0.087, C -0.913 ± 0.32, D -0.739 ± 0.17, T -0.541 ± 0.11, Q -0.831 ± 0.13, A -0.485 ± 0.28, I -0.513 ± 0.17, S -0.766 ± 0.089, V -0.524 ± 0.094, N -0.761 ± 0.32, M -0.335 ± 0.14, F -0.685 ± 0.18, H -0.843 ± 0.2, G -0.889 ± 0.12
H27: D -0.335 ± 0.16, N -0.165 ± 0.1, G -0.09 ± 0.064, E 0.093 ± 0.082, K 0.031 ± 0.087, T 0.04 ± 0.072, P -0.428 ± 0.12, V -0.03 ± 0.07, F -0.26 ± 0.2, W -0.276 ± 0.066, L -0.079 ± 0.064, Y -0.126 ± 0.1, C 0.013 ± 0.078, Q -0.021 ± 0.091, S -0.083 ± 0.069, A -0.005 ± 0.059, I -0.297 ± 0.18
E15: R -0.12 ± 0.048, S -0.138 ± 0.07, H -0.004 ± 0.18, N -0.184 ± 0.16, I -0.281 ± 0.13, M -0.23 ± 0.1, T -0.27 ± 0.09, F -0.43 ± 0.11, C -0.123 ± 0.11, D 0.027 ± 0.18, A -0.072 ± 0.073, W -0.343 ± 0.069, P -0.027 ± 0.082, L -0.208 ± 0.061, G -0.107 ± 0.061, Y -0.261 ± 0.16, K -0.268 ± 0.11, V -0.329 ± 0.11
I29: L -0.006 ± 0.053, T -0.215 ± 0.07, G -0.713 ± 0.092, E -0.705 ± 0.11, A -0.672 ± 0.09, C -0.561 ± 0.22, K -0.26 ± 0.079, W -1.05 ± 0.18, D -0.668 ± 0.24, P -0.524 ± 0.096, S -0.463 ± 0.061, V -0.047 ± 0.054, Y -0.755 ± 0.14, Q -0.494 ± 0.097, N -0.433 ± 0.12, H -0.56 ± 0.26, F -0.628 ± 0.12, M -0.185 ± 0.067
E22: Y -0.915 ± 0.31, M -0.485 ± 0.087, A -0.072 ± 0.078, N -0.437 ± 0.088, K 0.116 ± 0.075, W -1.13 ± 0.45, V -0.171 ± 0.082, I -0.404 ± 0.16, F -1.02 ± 0.25, L -0.732 ± 0.067, Q -0.081 ± 0.086, P -0.061 ± 0.078, G -0.26 ± 0.089, T -0.25 ± 0.091, C -0.4 ± 0.089, R -0.209 ± 0.065, S -0.119 ± 0.053, D -0.572 ± 0.15
I26: S -0.76 ± 0.078, M -0.555 ± 0.14, R -0.829 ± 0.09, V -0.153 ± 0.062, P -0.803 ± 0.14, G -0.856 ± 0.13, A -0.82 ± 0.14, C -0.46 ± 0.19, H -0.537 ± 0.17, T -0.605 ± 0.082, Q -0.734 ± 0.15, W -0.599 ± 0.12, E -0.725 ± 0.12, L -0.214 ± 0.056, D -0.7 ± 0.38
N14: I -0.202 ± 0.11, F -0.336 ± 0.13, A -0.023 ± 0.078, L -0.4 ± 0.072, G -0.087 ± 0.072, K -0.033 ± 0.088, E -0.159 ± 0.092, Q -0.012 ± 0.081, Y -0.38 ± 0.14, P -0.756 ± 0.12, R -0.061 ± 0.066, C 0.029 ± 0.097, S -0.024 ± 0.061, W -0.239 ± 0.11, V -0.421 ± 0.089, T -0.041 ± 0.072, D -0.107 ± 0.1, H -0.107 ± 0.074, M -0.172 ± 0.081
E24: V -0.318 ± 0.046, F -0.993 ± 0.21, K -0.697 ± 0.093, A -0.312 ± 0.057, D -0.036 ± 0.079, R -0.782 ± 0.052, Q -0.14 ± 0.062, L -0.599 ± 0.045, S -0.461 ± 0.055, M -0.223 ± 0.052, Y -0.77 ± 0.14, P -0.694 ± 0.12, T -0.286 ± 0.069, W -0.827 ± 0.081, N -0.824 ± 0.13
S30: D -0.2 ± 0.12, R -0.419 ± 0.065, F -0.967 ± 0.28, L -0.859 ± 0.091, G -0.328 ± 0.057, W -0.957 ± 0.22, P -0.71 ± 0.1, V -0.709 ± 0.096, A -0.129 ± 0.053, N -0.152 ± 0.15, C -0.365 ± 0.085, Q -0.36 ± 0.11, T 0.023 ± 0.062
G12: V -1.1 ± 0.19, H -0.837 ± 0.16, I -0.887 ± 0.23, N -0.646 ± 0.14, S -0.113 ± 0.055, M -0.786 ± 0.13, Y -0.759 ± 0.23, L -0.865 ± 0.089, T -0.425 ± 0.068, K -0.224 ± 0.095, P -0.381 ± 0.087, W -0.471 ± 0.11, Q -0.513 ± 0.1
